Values joined by “and” are separate entries in the source; they are usually repeats but may differ in a detail not shown here. Equal values may be shown once.
What was measured:
human CTLA4 (human) [1] = target: human CTLA4 (human) (UniProt P16410); experiment: ELISA, coat CTLA4 0.5 ug/ml; antibody 1 ug/ml
human CTLA4 (human) [2] = target: human CTLA4 (human) (UniProt P16410); experiment: ELISA on coated CTLA4, source Human (row of 8D2H2L2)
murine CTLA4 (murine) [3] = target: murine CTLA4 (murine) (UniProt P09793); experiment: ELISA on coated CTLA4, source Mouse (row of 8D2(Re))
murine CTLA4 (murine) [4] = target: murine CTLA4 (murine) (UniProt P09793); experiment: ELISA on coated CTLA4, source Mouse (row of 8D2H1L1)
human CTLA4 (human) [5] = target: human CTLA4 (human) (UniProt P16410); experiment: ELISA, coat human CTLA4 0.5 ug/ml; antibody 0 (blank)
[6] = target: monkey CTLA4-hFc (monkey); experiment: ELISA on coated CTLA4, source Monkey (row of 8D2H2L2)
CTLA4-mFc [7] = experiment: competitive ELISA, competitor B7-1; control run with 8D2H3L3
CTLA4-mFc [8] = experiment: competitive ELISA, competitor B7-1; control run with 8D2H2L17
human CTLA4 (human) [9] = target: human CTLA4 (human) (UniProt P16410); experiment: ELISA, coat human CTLA4 0.5 ug/ml; antibody 1:9 (start 1 ug/ml)
human CTLA4 (human) [10] = target: human CTLA4 (human) (UniProt P16410); experiment: ELISA, coat human CTLA4 0.5 ug/ml; antibody 1:27 (start 1 ug/ml)
human CTLA4 (human) [11] = target: human CTLA4 (human) (UniProt P16410); experiment: ELISA, coat human CTLA4 0.5 ug/ml; antibody 1:243 (start 1 ug/ml)
[12] = target: monkey CTLA4-hFc (monkey); experiment: ELISA, coat monkey CTLA4-hFc 0.25 ug/ml; antibody 1:729 (start 1 ug/ml)
CTLA4-mFc [13] = experiment: competitive ELISA, CTLA4-mFc coated, competitor B7/2-His; antibody 3 µg/ml
CTLA4-mFc [14] = experiment: competitive ELISA, CTLA4-mFc coated, competitor B7/2-His; antibody 1.5 µg/ml
CTLA4-mFc [15] = experiment: competitive ELISA, CTLA4-mFc coated, competitor B7/2-His; antibody 0 (no antibody)
CTLA4-mFc [16] = experiment: competitive ELISA, CTLA4-mFc coated, competitor B7/2-His; antibody 1.5 µg/ml diluted 1:9
CTLA4-mFc [17] = experiment: competitive ELISA, CTLA4-mFc coated, competitor B7/2-His; antibody 1 µg/ml diluted 1:729
CTLA4-mFc [18] = experiment: competitive ELISA, CTLA4-mFc coated, competitor B7/2-His; antibody 1.5 µg/ml diluted 1:81
CTLA4-mFc [19] = experiment: competitive ELISA, B7/1-hFc coated (competitor), CTLA4-mFc added; antibody 0 (no antibody)
CTLA4-mFc [20] = experiment: competitive ELISA, B7/1-hFc coated (competitor), CTLA4-mFc added; antibody 5 µg/ml diluted 1:3
CTLA4-mFc [21] = experiment: competitive ELISA, B7/1-hFc coated (competitor), CTLA4-mFc added; antibody 5 µg/ml diluted 1:9
CTLA4-mFc [22] = experiment: competitive ELISA, B7/1-hFc coated (competitor), CTLA4-mFc added; antibody 5 µg/ml diluted 1:81
CTLA4-mFc [23] = experiment: competitive ELISA, B7/1-hFc coated (competitor), CTLA4-mFc added; antibody 5 µg/ml diluted 1:27
CTLA4-mFc [24] = experiment: competitive ELISA, B7/1-hFc coated (competitor), CTLA4-mFc added; antibody 5 µg/ml diluted 1:729
CTLA4-mFc [25] = experiment: competition ELISA, coat B7/1-hFc 0.2 ug/ml (competitor), CTLA4-mFc 0.3 ug/ml detected; antibody 3 ug/ml
CTLA4-mFc [26] = experiment: competition ELISA, coat B7/1-hFc 0.2 ug/ml (competitor), CTLA4-mFc 0.3 ug/ml detected; antibody 1:3 (start 3 ug/ml)
CTLA4-mFc [27] = experiment: competition ELISA, coat B7/1-hFc 0.2 ug/ml (competitor), CTLA4-mFc 0.3 ug/ml detected; antibody 1:81 (start 3 ug/ml)

Chain of control antibody 11.2.1 (VH): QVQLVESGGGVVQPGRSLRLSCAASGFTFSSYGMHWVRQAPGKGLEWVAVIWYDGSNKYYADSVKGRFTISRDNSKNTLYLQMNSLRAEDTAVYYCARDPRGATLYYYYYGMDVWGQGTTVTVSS
Chain of control antibody 11.2.1 (VL): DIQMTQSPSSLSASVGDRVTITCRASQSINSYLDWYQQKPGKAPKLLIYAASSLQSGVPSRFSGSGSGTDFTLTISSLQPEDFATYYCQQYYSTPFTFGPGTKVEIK
Chain of human CTLA4 (human) (P16410 36-161 limits assumed): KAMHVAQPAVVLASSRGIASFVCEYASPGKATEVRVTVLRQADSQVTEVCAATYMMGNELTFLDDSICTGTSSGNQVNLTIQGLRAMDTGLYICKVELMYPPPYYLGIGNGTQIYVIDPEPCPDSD
Chain of CTLA4-mFc (chain, as listed by the source limits assumed): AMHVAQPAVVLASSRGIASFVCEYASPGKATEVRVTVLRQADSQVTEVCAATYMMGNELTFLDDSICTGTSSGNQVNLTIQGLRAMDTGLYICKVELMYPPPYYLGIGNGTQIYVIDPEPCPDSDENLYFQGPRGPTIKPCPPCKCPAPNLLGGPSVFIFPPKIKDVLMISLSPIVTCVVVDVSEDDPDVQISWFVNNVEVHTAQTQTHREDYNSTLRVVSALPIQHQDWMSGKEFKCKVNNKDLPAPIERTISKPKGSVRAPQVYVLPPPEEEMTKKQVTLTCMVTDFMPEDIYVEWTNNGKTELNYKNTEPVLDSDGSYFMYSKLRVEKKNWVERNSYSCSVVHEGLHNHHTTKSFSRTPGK

In the case of control antibody 11.2.1, the absorbance at 450 nm (human CTLA4 (human) [1]) is reported as 2.75 and 2.69, the EC50 (human CTLA4 (human) [2]) is reported as 0.09 nM and the EC50 (murine CTLA4 (murine) [3]) is reported as 0.023 nM. For the same substance, the EC50 (murine CTLA4 (murine) [4]) was 0.023 nM, the absorbance at 450 nm (human CTLA4 (human) [5]) was 0.057 and 0.061 and the EC50 [6] was 0.075 nM. For the same substance, the EC50 (CTLA4-mFc [7]) was 1.07 nM, the EC50 (CTLA4-mFc [8]) was 2.61 nM and the absorbance at 450 nm (human CTLA4 (human) [9]) was 1.29 and 1.41. The absorbance at 450 nm (human CTLA4 (human) [10]) was 2.34 and 2.29, the absorbance at 450 nm (human CTLA4 (human) [11]) was 0.223 and 0.219 and the absorbance at 450 nm [12] was 0.082 and 0.094. For the same substance, the absorbance at 450 nm (CTLA4-mFc [13]) was 0.492 and 0.442, the absorbance at 450 nm (CTLA4-mFc [14]) was 0.372 and 0.494 and the absorbance at 450 nm (CTLA4-mFc [15]) was 0.91 and 0.8. The absorbance at 450 nm (CTLA4-mFc [16]) was 0.479 and 0.412, the absorbance at 450 nm (CTLA4-mFc [17]) was 0.87 and 0.85 and the absorbance at 450 nm (CTLA4-mFc [18]) was 0.805 and 0.649. For the same substance, the absorbance at 450 nm (CTLA4-mFc [19]) was 0.683 and 0.735, the absorbance at 450 nm (CTLA4-mFc [20]) was 0.08 and the absorbance at 450 nm (CTLA4-mFc [21]) was 0.33 and 0.3. The absorbance at 450 nm (CTLA4-mFc [22]) was 0.698 and 0.66, the absorbance at 450 nm (CTLA4-mFc [23]) was 1.14 and 1.19 and the absorbance at 450 nm (CTLA4-mFc [24]) was 1.32 and 1.31. For the same substance, the absorbance at 450 nm (CTLA4-mFc [25]) was 0.101 and 0.105, the absorbance at 450 nm (CTLA4-mFc [26]) was 0.119 and 0.133 and the absorbance at 450 nm (CTLA4-mFc [27]) was 0.65 and 0.613.
